Among the data in article PMC11118710, “GLP-1 and Its Derived Peptides Mediate Pain Relief Through Direct TRPV1 Inhibition Without Affecting Thermoregulation” (Research Square, 2024) are IC50 of inhibition of the CAP (100 nM)-induced calcium response in CHO K1 cells expressing human TRPV1 values, retold here.

This test has as its target human transient receptor potential vanilloid 1 (TRPV1) (human) (UniProt Q8NER1).

human transient receptor potential vanilloid 1 (TRPV1) (human), sequence (Q8NER1 whole entry): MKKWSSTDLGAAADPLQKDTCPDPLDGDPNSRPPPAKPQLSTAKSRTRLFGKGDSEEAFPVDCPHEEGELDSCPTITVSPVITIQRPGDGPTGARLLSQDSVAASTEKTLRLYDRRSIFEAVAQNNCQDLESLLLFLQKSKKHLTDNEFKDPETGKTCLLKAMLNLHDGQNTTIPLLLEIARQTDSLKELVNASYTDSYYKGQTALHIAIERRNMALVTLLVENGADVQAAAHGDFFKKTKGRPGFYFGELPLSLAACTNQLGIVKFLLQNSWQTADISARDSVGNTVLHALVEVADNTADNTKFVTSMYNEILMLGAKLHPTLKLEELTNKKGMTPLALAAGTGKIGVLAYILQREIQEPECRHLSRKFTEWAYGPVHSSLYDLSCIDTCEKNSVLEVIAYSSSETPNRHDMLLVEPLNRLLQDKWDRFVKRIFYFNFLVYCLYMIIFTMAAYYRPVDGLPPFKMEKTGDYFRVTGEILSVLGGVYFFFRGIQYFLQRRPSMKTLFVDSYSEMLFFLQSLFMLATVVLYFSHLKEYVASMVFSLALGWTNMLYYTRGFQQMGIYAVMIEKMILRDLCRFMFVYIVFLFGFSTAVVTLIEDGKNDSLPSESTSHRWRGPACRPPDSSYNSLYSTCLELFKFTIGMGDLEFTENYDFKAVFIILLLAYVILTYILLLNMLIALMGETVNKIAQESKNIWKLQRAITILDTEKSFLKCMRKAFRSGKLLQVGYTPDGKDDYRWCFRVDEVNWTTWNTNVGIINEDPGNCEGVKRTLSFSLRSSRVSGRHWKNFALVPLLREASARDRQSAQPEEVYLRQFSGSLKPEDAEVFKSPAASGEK

For the substance “exendin-4 (from UniProt P26349 48-87) (peptide)”, the IC50 of inhibition of the CAP (100 nM)-induced calcium response in CHO K1 cells expressing human TRPV1 came out at 62.2 nM.
